{
  "source": "paper PMC4908976",
  "about": "(Science signaling, 2016)",
  "target": "T1, Gβγ on affinity beads (Gβ with 3xHA-tagged Gγ) (S. cerevisiae, UniProt P18851 1-423; P18852 1-110)",
  "T1 sequence (looked up) 1": "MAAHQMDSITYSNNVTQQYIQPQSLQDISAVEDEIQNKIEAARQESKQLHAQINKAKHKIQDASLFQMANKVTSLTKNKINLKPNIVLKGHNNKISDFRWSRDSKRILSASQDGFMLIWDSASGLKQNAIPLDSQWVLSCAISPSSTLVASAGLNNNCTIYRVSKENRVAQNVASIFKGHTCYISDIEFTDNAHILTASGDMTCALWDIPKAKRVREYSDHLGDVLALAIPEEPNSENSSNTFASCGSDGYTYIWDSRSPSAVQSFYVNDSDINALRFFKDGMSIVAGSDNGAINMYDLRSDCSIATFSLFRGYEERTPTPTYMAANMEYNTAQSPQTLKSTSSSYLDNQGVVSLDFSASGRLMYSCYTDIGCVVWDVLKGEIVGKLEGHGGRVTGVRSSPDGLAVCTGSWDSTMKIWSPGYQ",
  "T1 sequence (looked up) 2": "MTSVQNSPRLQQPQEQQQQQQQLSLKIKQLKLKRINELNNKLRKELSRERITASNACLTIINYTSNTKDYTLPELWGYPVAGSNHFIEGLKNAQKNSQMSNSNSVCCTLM",
  "test": "affinity purification with mass spectrometry",
  "data": [
    {"binder": "myc-tagged Yck1 (yeast casein kinase 1) (enzyme, S. cerevisiae, UniProt P23291 1-538, looked up) MSMPIASTTLAVNNLTNINGNANFNVQANKQLHHQAVDSPARSSMTATTAANSNSNSSRDDSTIVGLHYKIGKKIGEGSFGVLFEGTNMINGVPVAIKFEPRKTEAPQLRDEYKTYKILNGTPNIPYAYYFGQEGLHNILVIDLLGPSLEDLFDWCGRKFSVKTVVQVAVQMITLIEDLHAHDLIYRDIKPDNFLIGRPGQPDANNIHLIDFGMAKQYRDPKTKQHIPYREKKSLSGTARYMSINTHLGREQSRRDDMEALGHVFFYFLRGHLPWQGLKAPNNKQKYEKIGEKKRSTNVYDLAQGLPVQFGRYLEIVRSLSFEECPDYEGYRKLLLSVLDDLGETADGQYDWMKLNDGRGWDLNINKKPNLHGYGHPNPPNEKSRKHRNKQLQMQQLQMQQLQQQQQQQQYAQKTEADMRNSQYKPKLDPTSYEAYQHQTQQKYLQEQQKRQQQQKLQEQQLQEQQLQQQQQQQQQLRATGQPPSQPQAQTQSQQFGARYQPQQQPSAALRTPEQHPNDDNSSLAASHKGFFQKLGCC", "values": [
      {"measurement": "Gβ/Gβ^P− ratio (total MS intensity on Gβγ beads over that on Gβ^P−γ beads)", "result": 2.25}
    ]},
    {"binder": "endogenous Yck2 (untagged native protein) (enzyme, UniProt P23292 1-546, looked up) MSQVQSPLTATNSGLAVNNNTMNSQMPNRSNVRLVNGTLPPSLHVSSNLNHNTGNSSASYSGSQSRDDSTIVGLHYKIGKKIGEGSFGVLFEGTNMINGLPVAIKFEPRKTEAPQLKDEYRTYKILAGTPGIPQEYYFGQEGLHNILVIDLLGPSLEDLFDWCGRRFSVKTVVQVAVQMITLIEDLHAHDLIYRDIKPDNFLIGRPGQPDANKVHLIDFGMAKQYRDPKTKQHIPYREKKSLSGTARYMSINTHLGREQSRRDDMEAMGHVFFYFLRGQLPWQGLKAPNNKQKYEKIGEKKRLTNVYDLAQGLPIQFGRYLEIVRNLSFEETPDYEGYRMLLLSVLDDLGETADGQYDWMKLNGGRGWDLSINKKPNLHGYGHPNPPNEKSKRHRSKNHQYSSPDHHHHYNQQQQQQQAQAQAQAQAQAKVQQQQLQQAQAQQQANRYQLQPDDSHYDEEREASKLDPTSYEAYQQQTQQKYAQQQQKQMQQKSKQFANTGANGQTNKYPYNAQPTANDEQNAKNAAQDRNSNKSSKGFFSKLGCC", "values": [
      {"measurement": "Gβ/Gβ^P− ratio (total MS intensity on Gβγ beads over that on Gβ^P−γ beads)", "result": 2.09}
    ]}
  ]
}
